Laboratory results taken from patent US20220010008A1.
Several values for one entry are separate records, joined by “and”; a condition that tells them apart may be missing. Equal entries are not always repeated. Each block holds one substance with its values, some of them ahead of it.

Experiments:
[1] = biological target: recombinant human IL-5 protein (human) (UniProt P05113); assay: ELISA, biotin-human IL-5 on streptavidin plate, Ab 0.0009 nM
[2] = biological target: recombinant human IL-5 protein (human) (UniProt P05113); assay: ELISA, biotin-human IL-5 on streptavidin plate, Ab 0.0043 nM
[3] = biological target: recombinant human IL-5 protein (human) (UniProt P05113); assay: FACS blocking: biotin-IL-5 bound to CHOK1 IL-5Ra/CSF2RB cells, Ab 0.0107 nM
[4] = biological target: recombinant human IL-5 protein (human) (UniProt P05113); assay: ELISA, biotin-human IL-5 on streptavidin plate, Ab 0.1067 nM
[5] = biological target: recombinant human IL-5 protein (human) (UniProt P05113); assay: ELISA, biotin-human IL-5 on streptavidin plate, Ab 0.5333 nM
[6] = biological target: recombinant human IL-5 protein (human) (UniProt P05113); assay: ELISA, biotin-human IL-5 on streptavidin plate, Ab 2.6667 nM
[7] = biological target: recombinant human IL-5 protein (human) (UniProt P05113); assay: FACS blocking: biotin-IL-5 bound to CHOK1 IL-5Ra/CSF2RB cells, Ab 0.2667 nM
[8] = biological target: recombinant human IL-5 protein (human) (UniProt P05113); assay: ELISA, biotin-human IL-5 on streptavidin plate, Ab 0.0213 nM
[9] = biological target: recombinant human IL-5 protein (human) (UniProt P05113); assay: FACS blocking: biotin-IL-5 bound to CHOK1 IL-5Ra/CSF2RB cells, Ab 33.3333 nM
[10] = biological target: recombinant human IL-5 protein (human) (UniProt P05113); assay: cell-based or functional assay
[11] = biological target: recombinant human IL-5 protein (human) (UniProt P05113); assay: FACS blocking: biotin-IL-5 bound to CHOK1 IL-5Ra/CSF2RB cells, Ab 1.3333 nM
[12] = biological target: recombinant human IL-5 protein (human) (UniProt P05113); assay: FACS blocking: biotin-IL-5 bound to CHOK1 IL-5Ra/CSF2RB cells, Ab 6.6667 nM
[13] = biological target: recombinant human IL-5 protein (human) (UniProt P05113); assay: FACS blocking: biotin-IL-5 bound to CHOK1 IL-5Ra/CSF2RB cells, Ab 0.0021 nM
[14] = biological target: recombinant human IL-5 protein (human) (UniProt P05113); assay: ELISA, biotin-human IL-5 on streptavidin plate, Ab 0.0002 nM
[15] = biological target: recombinant human IL-5 protein (human) (UniProt P05113); assay: FACS blocking: biotin-IL-5 bound to CHOK1 IL-5Ra/CSF2RB cells, Ab 0.0533 nM
[16] = biological target: recombinant human IL-5 protein (human) (UniProt P05113); assay: ELISA, biotin-human IL-5 on streptavidin plate, Ab 13.3333 nM
[17] = biological target: recombinant human IL-5 protein (human) (UniProt P05113); assay: FACS blocking: biotin-IL-5 bound to CHOK1 IL-5Ra/CSF2RB cells, Ab 0.0004 nM
[18] = biological target: recombinant human IL-5 protein with His tag (human) (UniProt P05113); assay: ELISA, biotin-human IL-5 on streptavidin; antibody 0.0213 nM
[19] = biological target: recombinant human IL-5 protein with His tag (human) (UniProt P05113); assay: ELISA, biotin-human IL-5 on streptavidin; antibody 2.6667 nM
[20] = biological target: recombinant human IL-5 protein with His tag (human) (UniProt P05113); assay: ELISA, biotin-human IL-5 on streptavidin; antibody 0.0009 nM
[21] = biological target: recombinant human IL-5 protein with His tag (human) (UniProt P05113); assay: ELISA, biotin-human IL-5 on streptavidin; antibody 0.0043 nM
[22] = biological target: recombinant human IL-5 protein with His tag (human) (UniProt P05113); assay: ELISA, biotin-human IL-5 on streptavidin; antibody 0.0002 nM
[23] = biological target: recombinant human IL-5 protein with His tag (human) (UniProt P05113); assay: ELISA, biotin-human IL-5 on streptavidin; antibody 0.5333 nM
[24] = biological target: recombinant human IL-5 protein with His tag (human) (UniProt P05113); assay: ELISA, biotin-human IL-5 on streptavidin; antibody 0.1067 nM
[25] = biological target: recombinant human IL-5 protein with His tag (human) (UniProt P05113); assay: ELISA, biotin-human IL-5 on streptavidin; antibody 13.3333 nM
[26] = biological target: recombinant human IL-5 protein with His tag (human) (UniProt P05113); assay: cell-based or functional assay
[27] = biological target: recombinant human IL-5 protein (human) (UniProt P05113); assay: FACS, biotin-IL-5 bound to CHOK1 hIL-5Ra/CSF2RB cells with Ab 0.0004 nM
[28] = biological target: recombinant human IL-5 protein (human) (UniProt P05113); assay: FACS, biotin-IL-5 bound to CHOK1 hIL-5Ra/CSF2RB cells with Ab 33.3333 nM
[29] = biological target: recombinant human IL-5 protein (human) (UniProt P05113); assay: FACS, biotin-IL-5 bound to CHOK1 hIL-5Ra/CSF2RB cells with Ab 1.3333 nM
[30] = biological target: recombinant human IL-5 protein (human) (UniProt P05113); assay: FACS, biotin-IL-5 bound to CHOK1 hIL-5Ra/CSF2RB cells with Ab 6.6667 nM
[31] = biological target: recombinant human IL-5 protein (human) (UniProt P05113); assay: FACS, biotin-IL-5 bound to CHOK1 hIL-5Ra/CSF2RB cells with Ab 0.0107 nM
[32] = biological target: recombinant human IL-5 protein (human) (UniProt P05113); assay: FACS, biotin-IL-5 bound to CHOK1 hIL-5Ra/CSF2RB cells with Ab 0.0533 nM
[33] = biological target: recombinant human IL-5 protein (human) (UniProt P05113); assay: FACS, biotin-IL-5 bound to CHOK1 hIL-5Ra/CSF2RB cells with Ab 0.2667 nM
[34] = biological target: recombinant human IL-5 protein (human) (UniProt P05113); assay: FACS, biotin-IL-5 bound to CHOK1 hIL-5Ra/CSF2RB cells with Ab 0.0021 nM

OD450 nm [1]: 0.08 OD450 nm and 0.078 OD450 nm
OD450 nm [2]: 0.074 OD450 nm and 0.077 OD450 nm
Fluorescence intensity [3]: 85 MFI
OD450 nm [4]: 0.078 OD450 nm
OD450 nm [5]: 0.079 OD450 nm and 0.078 OD450 nm
OD450 nm [6]: 0.09 OD450 nm and 0.088 OD450 nm
Fluorescence intensity [7]: 88 MFI
OD450 nm [8]: 0.079 OD450 nm and 0.076 OD450 nm
Fluorescence intensity [9]: 84 MFI
RLU, CTLL-2 proliferation with IL-5, Ab 0.000170667 nM [10]: 57400 RLU and 51000 RLU
RLU, CTLL-2 proliferation with IL-5, Ab 0.000853333 nM [10]: 58600 RLU and 53800 RLU
RLU, CTLL-2 proliferation with IL-5, Ab 0.004266667 nM [10]: 57900 RLU and 48200 RLU
RLU, CTLL-2 proliferation with IL-5, Ab 0.02133333 nM [10]: 59800 RLU and 55900 RLU
RLU, CTLL-2 proliferation with IL-5, Ab 0.1066667 nM [10]: 58200 RLU and 53500 RLU
RLU, CTLL-2 proliferation with IL-5, Ab 0.5333334 nM [10]: 56200 RLU and 50500 RLU
RLU, CTLL-2 proliferation with IL-5, Ab 2.666667 nM [10]: 51200 RLU and 46200 RLU
RLU, CTLL-2 proliferation with IL-5, Ab 13.33333 nM [10]: 45800 RLU and 46300 RLU
RLU, CTLL-2 proliferation with IL-5, Ab 66.66666 nM [10]: 43200 RLU and 34400 RLU
RLU, CTLL-2 proliferation with IL-5, Ab 3.41333E-05 nM [10]: 58600 RLU and 55000 RLU
RLU, TF-1 proliferation with IL-5, Ab 0.00001 nM [10]: 113000 RLU and 118000 RLU
RLU, TF-1 proliferation with IL-5, Ab 0.00003 nM [10]: 112000 RLU and 116000 RLU
RLU, TF-1 proliferation with IL-5, Ab 0.00017 nM [10]: 112000 RLU and 121000 RLU
RLU, TF-1 proliferation with IL-5, Ab 0.00085 nM [10]: 115000 RLU and 117000 RLU
RLU, TF-1 proliferation with IL-5, Ab 0.00427 nM [10]: 116000 RLU and 127000 RLU
RLU, TF-1 proliferation with IL-5, Ab 0.02133 nM [10]: 108000 RLU and 131000 RLU
RLU, TF-1 proliferation with IL-5, Ab 0.10667 nM [10]: 108000 RLU and 114000 RLU
RLU, TF-1 proliferation with IL-5, Ab 0.53333 nM [10]: 103000 RLU and 106000 RLU
RLU, TF-1 proliferation with IL-5, Ab 2.66667 nM [10]: 101000 RLU and 106000 RLU
RLU, TF-1 proliferation with IL-5, Ab 13.33333 nM [10]: 101000 RLU and 102000 RLU
Fluorescence intensity [11]: 84 MFI
Fluorescence intensity [12]: 83 MFI
Fluorescence intensity [13]: 83 MFI
OD450 nm [14]: 0.082 OD450 nm and 0.08 OD450 nm
Fluorescence intensity [15]: 86 MFI
OD450 nm [16]: 0.172 OD450 nm and 0.07 OD450 nm
Fluorescence intensity [17]: 88 MFI
Substance: hIgG control (human IgG) (antibody)

OD450 nm [18]: 0.074 and 0.079
OD450 nm [19]: 0.079
OD450 nm [20]: 0.075
OD450 nm [21]: 0.078 and 0.072
OD450 nm [22]: 0.076 and 0.075
OD450 nm [23]: 0.08 and 0.077
OD450 nm [24]: 0.08 and 0.079
OD450 nm [25]: 0.108 and 0.115
Substance: mIgG control (antibody)

TF1 (IC50), TF1 proliferation induced by IL-5 [26]: 10 pM
Substance: Mepolizumab (antibody)

Fluorescence intensity [27]: 86
Fluorescence intensity [28]: 80
Fluorescence intensity [29]: 83
Fluorescence intensity [30]: 85
RLU, CTLL-2 cell proliferation stimulated by IL-5, Ab conc. 0.000170667 nM [10]: 57400 RLU and 51000 RLU
RLU, CTLL-2 cell proliferation stimulated by IL-5, Ab conc. 0.000853333 nM [10]: 58600 RLU and 53800 RLU
RLU, CTLL-2 cell proliferation stimulated by IL-5, Ab conc. 0.004266667 nM [10]: 57900 RLU and 48200 RLU
RLU, CTLL-2 cell proliferation stimulated by IL-5, Ab conc. 0.02133333 nM [10]: 59800 RLU and 55900 RLU
RLU, CTLL-2 cell proliferation stimulated by IL-5, Ab conc. 0.1066667 nM [10]: 58200 RLU and 53500 RLU
RLU, CTLL-2 cell proliferation stimulated by IL-5, Ab conc. 0.5333334 nM [10]: 56200 RLU and 50500 RLU
RLU, CTLL-2 cell proliferation stimulated by IL-5, Ab conc. 2.666667 nM [10]: 51200 RLU and 46200 RLU
RLU, CTLL-2 cell proliferation stimulated by IL-5, Ab conc. 13.33333 nM [10]: 45800 RLU and 46300 RLU
RLU, CTLL-2 cell proliferation stimulated by IL-5, Ab conc. 66.66666 nM [10]: 43200 RLU and 34400 RLU
RLU, CTLL-2 cell proliferation stimulated by IL-5, Ab conc. 3.41333E-05 nM [10]: 58600 RLU and 55000 RLU
RLU, TF-1 cell proliferation stimulated by IL-5, Ab conc. 0.00001 nM [10]: 113000 RLU and 118000 RLU
RLU, TF-1 cell proliferation stimulated by IL-5, Ab conc. 0.00003 nM [10]: 112000 RLU and 116000 RLU
RLU, TF-1 cell proliferation stimulated by IL-5, Ab conc. 0.00017 nM [10]: 112000 RLU and 121000 RLU
RLU, TF-1 cell proliferation stimulated by IL-5, Ab conc. 0.00085 nM [10]: 115000 RLU and 117000 RLU
RLU, TF-1 cell proliferation stimulated by IL-5, Ab conc. 0.00427 nM [10]: 116000 RLU and 127000 RLU
RLU, TF-1 cell proliferation stimulated by IL-5, Ab conc. 0.02133 nM [10]: 108000 RLU and 131000 RLU
RLU, TF-1 cell proliferation stimulated by IL-5, Ab conc. 0.10667 nM [10]: 108000 RLU and 114000 RLU
RLU, TF-1 cell proliferation stimulated by IL-5, Ab conc. 0.53333 nM [10]: 103000 RLU and 106000 RLU
RLU, TF-1 cell proliferation stimulated by IL-5, Ab conc. 2.66667 nM [10]: 101000 RLU and 106000 RLU
RLU, TF-1 cell proliferation stimulated by IL-5, Ab conc. 13.33333 nM [10]: 101000 RLU and 102000 RLU
Fluorescence intensity [31]: 83
Fluorescence intensity [32]: 83
Fluorescence intensity [33]: 84
Fluorescence intensity [34]: 81
Substance: mIgG control (mouse IgG) (antibody)
